# Laboratory results: patent US20090285824A1
# Assays:
# [1] = target: hu IGF-1R(ECD)-C3-muIgG1Fc (human; mouse); assay: ORIGEN competition: antibody vs 1 nM Ru-IGF-1 on IGF-1R(ECD)-C3-muFc beads
# [2] = target: hu IGF-1R(ECD)-C3-muIgG1Fc (human; mouse); assay: ORIGEN competition: antibody vs 2 nM Ru-IGF-2 on IGF-1R(ECD)-C3-muFc beads
Ki [1],"Max (%), maximum level of inhibition at 1 µM antibody [1]",Ki [2],"Max (%), maximum level of inhibition at 1 µM antibody [2]",Substance
5.3 nM,91%,–,–,murine anti-IGF-1R antibody αIR3 (Calbiochem)
16 nM,89%,13.1 nM,99%,murine anti-IGF-1R antibody 1H7 (Santa Cruz Biotechnology)
